US11021531 (CENTIVAX, dated 2021)

How the values were obtained:
[1] = target: MERS Receptor Binding Domain (RBD) protein (MERS coronavirus, UniProt K9N5Q8 367-606); experiment: SPR (Carterra LSA), scFv captured via anti-V5, RBD as analyte
[2] = target: SARS-CoV-1 Receptor Binding Domain (RBD) protein (SARS-CoV-1, UniProt P59594 306-527); experiment: as above
[3] = target: SARS-Cov-2 Receptor Binding Domain (RBD) protein (SARS-CoV-2, UniProt P0DTC2 319-541); experiment: SPR (Carterra LSA), scFv captured via anti-V5, RBD as analyte, 1:1 fit
[4] = target: SARS-CoV-2 spike protein (on pseudovirus / virus in the neutralisation assays) (SARS-CoV-2, UniProt P0DTC2 14-1273); experiment: cell-based or functional assay

Binder	binding result [1]	binding result [2]	Kd [3] [nM]	koff [3] [s⁻¹]	kon [3] [M⁻¹ s⁻¹]	IC50 [µg/mL] plaque [4] [µg/mL]	IC50 [µg/mL] pseudotyped lenti neutralization [4] [µg/mL]
COVID19_P04_B10 (scFv, V domains shown) VH: EVQLVESGGGLVQPGGSLRLSCAASGFRFSDAAIHWVRQAPGKGLEWVSAISGSGGSTYYADSVKGRFTISRDNSKNTLYLQMNSLRAEDTAVYYCARDRSYGIDYWGQGTLVTVSS VL: not shown	no binding (tested: 300 nM (highest analyte concentration))	no binding (tested: 300 nM (highest analyte concentration))	2.5	0.0005	200000	–	–
COVID19_P04_B03 (scFv, V domains shown) VH: EVQLVESGGGLVQPGGSLRLSCAASGFTFSNHYMSWVRQAPGKGLEWVSAISGSGGSTYYADSVKGRFTISRDNSKNTLYLQMNSLRAEDTAVYYCARDRSYYLDYWGQGTLVTVSS VL: EIVMTQSPATLSVSPGERATLSCRASQSIGTYLSWYQQKPGQAPRLLIYGASTRATGIPARFSGSGSGTEFTLTISSLQSEDFAVYYCQQSLSLPVTFGGGTKVEIKR	no binding (tested: 300 nM (highest analyte concentration))	no binding (tested: 300 nM (highest analyte concentration))	19.7	0.0141	716000	–	–
COVID19_R01_B01 (scFv, V domains shown) VH: EVQLVESGGGLVQPGGSLRLSCAASGFTFASHAMSWVRQAPGKGLEWVSGISSDGSITTYADSVKGRFTISRDNSKNTLYLQMNSLRAEDTAVYYCARDRGWYLDYWGQGTLVTVSS VL: not shown	–	–	12.5	0.00055	44000	–	–
COVID19_R01_D02 (scFv, V domains shown) VH: EVQLVESGGGLVQPGGSLRLSCAASGFTFDDYAMHWVRQAPGKGLEWVAIIYEGGSPHYADSVKGRFTISRDNSKNTLYLQMNSLRAEDTAVYYCARDRSGYLDYWGQGTLVTVSS VL: EIVMTQSPATLSVSPGERATLSCRASQSVSNNLAWYQQKPGQAPRLLIYDASTRATGIPARFSGSGSGTEFTLTISSLQSEDFAVYYCQQYNNWPPTFGGGTKVEIKR	–	–	2.8	0.00058	210000	< 3	0.62
COVID19_P04_B09 (scFv, V domains shown) VH: EVQLVESGGGLVQPGGSLRLSCAASGFTFSNSDMNWVRQAPGKGLEWVSAISGTGDTTEYADSVKGRFTISRDNSKNTLYLQMNSLRAEDTAVYYCARDRSLMLDYWGQGTLVTVSS VL: EIVMTQSPATLSVSPGERATLSCRASQSVRSNLAWYQQKPGQAPRLLIYGASTRATGIPARFSGSGSGTEFTLTISSLQSEDFAVYYCQQRNNWPPTFGGGTKVEIKR	no binding (tested: 300 nM (highest analyte concentration))	no binding (tested: 300 nM (highest analyte concentration))	1.4	0.00032	230000	–	–
COVID19_P04_D08 (scFv, V domains shown) VH: EVQLVESGGGLVQPGGSLRLSCAASGFTFTNYAMTWVRQAPGKGLEWVSTMSNIGGDTYYADSVKGRFTISRDNSKNTLYLQMNSLRAEDTAVYYCARDRRVYLDYWGQGTLVTVSS VL: DIQMTQSPSSLSASVGDRVTITCRASQSISSYLNWYQQKPGKAPKLLIYAASSLQSGVPSRFSGSGSGTEFTLTISSLQSEDFAVYYCQQYGSSPLTFGGGTKVEIKR	no binding (tested: 300 nM (highest analyte concentration))	no binding (tested: 300 nM (highest analyte concentration))	40.7	0.0113	279000	–	–
COVID19_R01_A04 (scFv, V domains shown) VH: EVQLVESGGGLVQPGGSLRLSCAASGFTFSDHYMSWVRQAPGKGLEWVSAISTSGDSTFYADSVKGRFTISRDNSKNTLYLQMNNLRAEDTAVYYCARDRSYYLDYWGQGTLVTVSS VL: EIVMTQSPATLSVSPGERATLSCRASQSVRSNLAWYQQKPGQAPRLLIYGASTRATGIPARFSGSGSGTEFTLTISSLQSEDFAVYYCQQFGTSPPGLSFGGGTKVEIKR	–	–	10.9	0.012	1.1e+06	–	–
COVID19_R01_C08 (scFv, V domains shown, also called COVID19_R01_CO8) VH: EVQLVESGGGLVQPGGSLRLSCAASGFSFSSYGMSWVRQAPGKGLEWVSAMNRDGSYIYYADSVKGRFTISRDNSKNTLYLQMNSLRAEDTAVYYCARDRSYYVGYWGQGTLVTVSS VL: not shown	–	–	49.5	0.00379	76600	–	–
COVID19_P04_E10 (scFv, V domains shown) VH: EVQLVESGGGLVQPGGSLRLSCAASGFSFSSYGMSWVRQAPGKGLEWVSAMNRDGSYIYYADSVKGRFTISRDNSKNTLYLQMNSLRAEDTAVYYCARDRSYYVGYWGQGTLVTVSS VL: EIVMTQSPATLSVSPGERATLSCRASQSVRSNLAWYQQKPGQAPRLLIYGASTRATGIPARFSGSGSGTEFTLTISSLQSEDFAVYYCQQRNNWPPTFGGGTKVEIKR	no binding (tested: 300 nM (highest analyte concentration))	no binding (tested: 300 nM (highest analyte concentration))	4.4	0.00053	120000	–	–
COVID19_P04_G03 (scFv, V domains shown) VH: EVQLVESGGGLVQPGGSLRLSCAASGFTVSSNYMNWVRQAPGKGLEWVSVVYPGGSTYYADSVKGRFTISRDNSKNTLYLQMNSLRAEDTAVYYCARDRSYYLDYWGQGTLVTVSS VL: not shown	no binding (tested: 300 nM (highest analyte concentration))	no binding (tested: 300 nM (highest analyte concentration))	7.1	0.00045	63000	–	–
COVID19_R01_B10 (scFv, V domains shown) VH: EVQLVESGGGLVQPGGSLRLSCAASGFTVSSNYMSWVRQAPGKGLEWVSVIYPGGSTFYADSVKGRFTISRDNSKNTLYLQMNSLRAEDTAVYYCARDRSYYLDYWGQGTLVTVSS VL: EIVMTQSPATLSVSPGERATLSCRASQSVSSSYLAWYQQKPGQAPRLLIYGASTRATGIPARFSGSGSGTEFTLTISSLQSEDFAVYYCQQASSTPLTFGGGTKVEIKR	–	–	30.4	0.00294	96900	–	–
COVID19_P04_G05 (scFv, V domains shown) VH: EVQLVESGGGLVQPGGSLRLSCAASGLSVTSNYMSWVRQAPGKGLEWVSVIYPGGSTFYADSVKGRFTISRDNSKNTLYLQMNSLRAEDTAVYYCARDRSYYLDYWGQGTLVTVSS VL: not shown	no binding (tested: 300 nM (highest analyte concentration))	no binding (tested: 300 nM (highest analyte concentration))	0.72	5.7e-05	79000	–	–
